Test [1] concerns the target Bxb1 gp19, tail tube protein (Mycobacteriophage Bxb1). In words: cryo-EM structure.
Test [2] has as its target Bxb1 gp31, tail wing arm (Mycobacteriophage Bxb1). The test is described as follows: cryo-EM structure.

For orientation: stoichiometry N means a count of units in the complex or per binding partner.

“Bxb1 gp19, tail tube protein (natural protein)” came in with a stoichiometry N in test [1] of 6.

In the case of “Bxb1 gp31, tail wing arm (natural protein)”, the stoichiometry N in test [2] amounted to 2.

The record behind these values is paper PMC12124961.
